T1: DFA0
T1 construct: Bivalent connector
T1 chain: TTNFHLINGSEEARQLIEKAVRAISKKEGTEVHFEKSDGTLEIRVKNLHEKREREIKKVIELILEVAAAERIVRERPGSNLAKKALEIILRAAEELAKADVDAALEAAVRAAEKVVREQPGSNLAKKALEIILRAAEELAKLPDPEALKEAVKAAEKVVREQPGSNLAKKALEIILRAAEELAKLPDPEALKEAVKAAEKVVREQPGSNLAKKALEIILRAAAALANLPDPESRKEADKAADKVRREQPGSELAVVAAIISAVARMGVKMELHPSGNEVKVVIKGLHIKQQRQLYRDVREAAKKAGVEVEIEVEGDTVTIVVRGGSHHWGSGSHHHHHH

T2: LHD101 chainA
T2 construct: also called LHD101A
T2 chain: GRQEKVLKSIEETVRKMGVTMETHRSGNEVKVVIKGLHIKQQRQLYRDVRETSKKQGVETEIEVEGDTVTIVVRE

T3: 274B53
T3 construct: also called LHD274B DHR53 stop
T3 chain: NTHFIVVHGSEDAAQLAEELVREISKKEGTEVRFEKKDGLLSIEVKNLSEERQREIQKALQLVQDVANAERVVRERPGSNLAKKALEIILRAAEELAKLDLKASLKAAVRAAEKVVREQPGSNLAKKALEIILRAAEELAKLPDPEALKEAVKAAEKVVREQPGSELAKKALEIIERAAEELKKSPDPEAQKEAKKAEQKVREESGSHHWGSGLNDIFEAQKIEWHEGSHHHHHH

T4: DFX
T4 construct: Bivalent connector
T4 chain: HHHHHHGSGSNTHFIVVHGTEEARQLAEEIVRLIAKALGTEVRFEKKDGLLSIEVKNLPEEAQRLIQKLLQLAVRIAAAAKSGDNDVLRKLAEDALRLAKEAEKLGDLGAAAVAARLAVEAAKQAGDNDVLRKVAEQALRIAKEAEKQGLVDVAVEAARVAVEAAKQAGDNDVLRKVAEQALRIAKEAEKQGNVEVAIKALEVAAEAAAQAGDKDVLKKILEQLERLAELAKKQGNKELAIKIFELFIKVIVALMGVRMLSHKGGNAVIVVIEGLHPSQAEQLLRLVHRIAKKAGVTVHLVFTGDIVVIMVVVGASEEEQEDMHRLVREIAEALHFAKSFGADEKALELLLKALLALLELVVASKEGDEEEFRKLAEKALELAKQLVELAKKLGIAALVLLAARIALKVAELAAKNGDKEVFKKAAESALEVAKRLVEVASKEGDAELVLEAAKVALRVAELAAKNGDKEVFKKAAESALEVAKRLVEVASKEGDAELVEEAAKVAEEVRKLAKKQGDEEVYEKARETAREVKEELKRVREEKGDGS

B1: 101B62 (designed binder)
chain: HHHHHHGSGLNDIFEAQKIEWHEAENLYFQSGSNDEKRKRAEKALQRAQEAEKKGDVEEAVRAAQEAVRAAKESGDNDVLRKVAEQALRIAKEAEKQGNVEVAVKAARVAVEAAKQAGDNDVLRKVAEQALRIAKEALKQGNVDVAAKAAQVAEEAAKQAGDQDVLRKVKEVQIEIVLAAIELTVRKMGVTMETHRSGREVKVVIKGLHESQQEQLLEDVLRIAELAGVRVRIRFKGDTVTIVVRG
notes: also called LHD101B62
B2: 274A53 (designed binder)
chain: TTNFHLINGSEEARQLIEKAVRAISKKEGTEVHFEKSDGTLEIRVKNLHEKREREIKKVIELILEVAAAERIVRERPGSNLAKKALEIILRAAEELAKADVDAALEAAVRAAEKVVREQPGSNLAKKALEIILRAAEELAKLPDPEALKEAVKAAEKVVREQPGSELAKKALEIIERAAEELKKSPDPEAQKEAKKAEQKVREESGSHHWGSGLNDIFEAQKIEWHEGSHHHHHH
notes: also called LHD274A DHR53 stop; LHD274A53

Legend:
DFA0 = target: T1, DFA0; assay: SEC of mixed components; linear tetramer listed in Table 6, neighbours in the chain
LHD101 chainA = target: T2, LHD101 chainA; assay: BLI steady-state titration, biotinylated unfused LHD101A on a streptavidin sensor
Text: FIG. 8A-E. Characterization LHD binding in vitro. A: Designed models heterodimers (top row). Middle row, SEC binding experiments performed on a Superdex™ 75 column. Bottom row, biolayer interferometry kinetic binding traces. […] C: Kinetic binding traces from BLI. Equilibrium responses were used to fit equilibrium binding curves D: Equilibrium binding curves of LHDs from biolayer interferometry binding assays with data from C. […] Biotinylated unfused protomers were immobilized on streptavidin coated biosensors.
Biolayer interferometry experiments were performed on an OctetRED96 BLI system (ForteBio, Menlo Park, CA). Streptavidin coated biosensors were first equilibrated for at least 10 minutes in Octet buffer (10 mM HEPES pH 7.4, 150 mM NaCl, 3 mM EDTA, 0.05% Surfactant P20) supplemented with 1 mg/ml Bovine Serum Albumin (SigmaAldrich). Enzymatically biotinylated designs were immobilized onto the biosensors by dipping the biosensors into a solution with 10-50 nM protein for 30-120 s. This was followed by dipping in fresh octet buffer to establish a baseline for 120 s. Titration experiments were performed at 25° C. while rotating at 1,000 r.p.m. […]

274B53 = target: T3, 274B53; assay: SEC titration (Superdex 200, normalised A230) of the complexes 274A53/274B53 and 29A53/29B53
DFX = target: T4, DFX; assay: negative-stain EM of the heterotrimer; components named in the legend
Method: SEC peak fractions were concentrated prior to negative stain EM screening. Samples were then immediately diluted 5 to 150 times in TBS buffer (25 mM Tris pH 8.0, 25 mM NaCl) depending on sample concentration. A final volume of 5 μL was applied to negatively glow discharged, carbon-coated 400-mesh copper grids (01844-F, TedPella, Inc.), then washed with Milli-Q™ Water and stained using 0.75% uranyl formate as previously described (53). Air-dried grids were imaged on a FEI Talos L120C TEM (FEI Thermo Scientific, Hillsboro, OR) equipped with a 4K×4K Gatan OneView™ camera at a magnification of 57,000× and pixel size of 2.51. Micrographs were imported into CisTEM software or cryoSPARC™ software and a circular blob picker was used to select particles which were then subjected to 2D classification. Ab initio reconstruction and homogeneous refinement in Cn symmetry were used to generate 3D electron density maps (54, 55).

Binder | binding result (DFA0) | binding result (LHD101 chainA) | binding result (274B53) | binding result (DFX)
B1 | binds | binds | – | –
B2 | – | – | binds | binds

— patent US20240368233A1 (University of Washington, published 2024)
